{
  "source": "patent US20260200999A1",
  "about": "“SYNTHETIC TRANSCRIPTION FACTORS” (ETH ZURICH, priority 2022, published 2026)",
  "key": {"[1]": {"conditions": "upon ingestion; cited from earlier work"}, "[2]": {"test_system": "Response Element-driven (SEQ ID NO: 48) mCerulean fluorescent reporter", "test": "Orthogonality: MTF-driven reporter with or without WT MTERF1 co-expression", "assay_type": "cell-based, human", "conditions": "HEK293; MTF construct plus reporter SEQ ID NO: 48, with or without EF1a-driven WT MTERF1", "description": "To assess the orthogonality of the host towards the Response Element-driven Gene of Interest (Gol), the inventors transfected a HumTAP representative MTF (SEQ ID NO: 100) with a Response Element-driven (SEQ ID NO: 48) mCerulean fluorescent reporter, with and without the construct encoding a wild-type MTERF1 to assess whether it might interfere with the induction of the Gol by MTF (FIG. 7B)."}, "[3]": {"test_system": "endogenous human genes in HEK293 cells", "test": "RNA-Seq differential gene expression analysis of transfected HEK293 cells versus junk plasmid (edgeR)", "assay_type": "cell-based", "conditions": "transfected HEK293 cells vs \"junk\" plasmid, FDR<0.5, fold-change of at least 2", "protocol": "The inventors therefore used RNA-Seq to investigate whether MTF (SEQ ID NO: 100) activates the expression of endogenous human genes. The inventors also transfected WT MTERF1 (SEQ ID NO: 108) to compare the gene-regulatory effects of MTERF1 to those of MTF. Differential gene expression analysis was performed against cells that were transfected with a “junk” plasmid using the edgeR software package for R [24]. […] Future investigations will assess the dose-dependency of differentially expressed (DE) genes on MTF amount and may help clarify the origin of DE genes."}, "[4]": {"target": "T1, MTF (MTERF1 58-399::RelA 430-551) (Homo sapiens, UniProt Q99551 SEQ:2-343)", "T1 chain": "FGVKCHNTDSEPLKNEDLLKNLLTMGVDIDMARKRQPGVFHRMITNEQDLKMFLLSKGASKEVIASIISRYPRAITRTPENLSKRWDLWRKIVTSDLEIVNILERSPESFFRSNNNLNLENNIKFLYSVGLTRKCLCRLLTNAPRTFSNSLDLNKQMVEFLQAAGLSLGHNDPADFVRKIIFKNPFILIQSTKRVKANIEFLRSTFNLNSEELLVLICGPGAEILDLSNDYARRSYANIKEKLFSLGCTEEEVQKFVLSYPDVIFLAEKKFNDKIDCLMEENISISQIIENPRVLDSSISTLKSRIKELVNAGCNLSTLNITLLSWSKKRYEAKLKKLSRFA", "test": "cell_activity; mCitrine, HEK293; none without MTF", "conditions": "tags: RelA 430-551 TAD fusion", "description": "The inventors next sought to facilitate potential future applications and created a collection of promoters with different strengths to match potential future applications' requirements. Randomly picking 20 variants yielded mostly weak promoters. To maximize diversity in size and strength, the inventors chose 19 further promoters based on their high activity score or small genetic size. Altogether, the inventors created a promoter collection spanning a wide range of sizes and strengths (FIG. 15A, B). After co-transfecting each variant either with or without a MTF plasmid amount corresponding to the EC90, and a mCherry transfection control plasmid into HEK293 cells, relative mCitrine levels were measured using flow cytometry. […]"}, "[5]": {"target": "T2, MTERF1 58-399::FoxoTAD-LMSTEN-TA1 (Homo sapiens, UniProt Q99551 SEQ:1-342)", "T2 chain": "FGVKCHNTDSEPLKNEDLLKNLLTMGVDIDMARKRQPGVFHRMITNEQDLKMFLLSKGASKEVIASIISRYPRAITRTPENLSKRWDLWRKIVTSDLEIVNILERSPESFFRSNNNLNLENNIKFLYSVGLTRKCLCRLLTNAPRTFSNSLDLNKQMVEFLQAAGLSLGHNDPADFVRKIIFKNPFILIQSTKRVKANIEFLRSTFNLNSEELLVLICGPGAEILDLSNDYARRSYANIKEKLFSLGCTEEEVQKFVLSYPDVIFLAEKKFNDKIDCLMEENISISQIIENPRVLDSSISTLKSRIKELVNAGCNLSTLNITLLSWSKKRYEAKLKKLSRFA", "test": "cell_activity; HEK293 reporter", "conditions": "tags: TAD fusion", "description": "(§1) Upon co-transfection of HEK293 cells with plasmids encoding pEF1a-driven expression of the fusion HumTAPs, a Response Element-driven mCerulean reporter protein, and a mCherry transfection control, all peptides derived from RelA except TA1 mediated high levels of reporter gene expression. Including a larger fraction of the RelA protein led to higher reporter expression. Conversely, the core transactivation domains TA1, WW, ZNF473 KRAB, and NucRecCoAct mediated little to no reporter expression.\n(§2) Similarly, two copies of FoxoTAD (SEQ ID NO: 33) mediated 20-fold more mCerulean expression than just one FoxoTAD copy and ~2-fold more than the benchmark RelA₄₃₀₋₅₅₁ TAD. This effect was not as pronounced for the LMSTEN domain for which two copies (SEQ ID NO: 196) mediated ~2.7-fold more reporter expression than one copy. Fusing FoxoTAD with LMSTEN (SEQ ID NO: 54), LMSTEN with TA1 (SEQ ID NO: 56), or FoxoTAD with TA1 (SEQ ID NO: 58) yields TADs that are at the same time smaller and stronger than the benchmark RelA₄₃₀₋₅₅₁ TAD. A chimeric TAD consisting of FoxoTAD, LMSTEN, and TA1 (SEQ ID NO: 52) yields 3.7 times the amount of reporter gene expression than RelA₄₃₀₋₅₅₁ (FIG. 9 C). It is therefore possible to engineer both stronger and smaller transactivation domains than the commonly used RelA₄₃₀₋₅₅₁ without incorporating protein domains of non-human origin. […]"}, "[6]": {"target": "T3, MTERF1 58-399::2xFoxoTAD (Homo sapiens, UniProt Q99551 SEQ:1-342)", "T3 chain": "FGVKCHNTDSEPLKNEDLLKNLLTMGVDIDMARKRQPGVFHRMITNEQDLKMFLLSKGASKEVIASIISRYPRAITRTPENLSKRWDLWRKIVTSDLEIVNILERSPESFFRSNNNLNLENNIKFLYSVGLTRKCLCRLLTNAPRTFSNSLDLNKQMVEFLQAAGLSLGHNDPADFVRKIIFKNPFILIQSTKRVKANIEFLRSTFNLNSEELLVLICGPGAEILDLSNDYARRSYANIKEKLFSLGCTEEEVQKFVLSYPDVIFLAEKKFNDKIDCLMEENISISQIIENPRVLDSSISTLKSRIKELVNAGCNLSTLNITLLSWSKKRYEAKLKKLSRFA", "test": "cell_activity; HEK293 reporter", "conditions": "tags: TAD fusion", "description": "as §1, §2"}, "[7]": {"target": "T4, MTERF1 58-399::2xTA1 (Homo sapiens, UniProt Q99551 SEQ:1-342)", "T4 chain": "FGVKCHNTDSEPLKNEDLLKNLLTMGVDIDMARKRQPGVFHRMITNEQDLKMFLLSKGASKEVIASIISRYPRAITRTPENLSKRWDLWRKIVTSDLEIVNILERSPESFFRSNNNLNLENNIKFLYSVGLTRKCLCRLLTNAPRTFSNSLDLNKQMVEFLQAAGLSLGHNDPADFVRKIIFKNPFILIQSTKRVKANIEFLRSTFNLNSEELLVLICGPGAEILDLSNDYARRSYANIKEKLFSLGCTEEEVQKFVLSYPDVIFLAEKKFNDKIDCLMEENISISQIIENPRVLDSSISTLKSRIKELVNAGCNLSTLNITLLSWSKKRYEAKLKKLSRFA", "test": "cell_activity; HEK293 reporter", "conditions": "tags: TAD fusion"}, "[8]": {"target": "T5, MTERF1 58-399::LMSTEN (Homo sapiens, UniProt Q99551 SEQ:1-342)", "T5 chain": "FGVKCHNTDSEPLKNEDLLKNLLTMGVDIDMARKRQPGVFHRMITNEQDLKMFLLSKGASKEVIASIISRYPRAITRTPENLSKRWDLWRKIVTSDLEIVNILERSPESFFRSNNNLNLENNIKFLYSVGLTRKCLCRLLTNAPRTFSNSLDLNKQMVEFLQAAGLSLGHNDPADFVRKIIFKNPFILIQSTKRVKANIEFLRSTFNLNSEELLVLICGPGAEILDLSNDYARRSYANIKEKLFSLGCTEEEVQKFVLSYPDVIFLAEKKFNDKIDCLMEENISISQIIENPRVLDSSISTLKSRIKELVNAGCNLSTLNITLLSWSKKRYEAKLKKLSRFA", "test": "cell_activity; HEK293 reporter; TAD effect", "conditions": "tags: TAD fusion"}, "[9]": {"target": "T6, MTERF1 58-399::FoxoTAD (Homo sapiens, UniProt Q99551 SEQ:1-342)", "T6 chain": "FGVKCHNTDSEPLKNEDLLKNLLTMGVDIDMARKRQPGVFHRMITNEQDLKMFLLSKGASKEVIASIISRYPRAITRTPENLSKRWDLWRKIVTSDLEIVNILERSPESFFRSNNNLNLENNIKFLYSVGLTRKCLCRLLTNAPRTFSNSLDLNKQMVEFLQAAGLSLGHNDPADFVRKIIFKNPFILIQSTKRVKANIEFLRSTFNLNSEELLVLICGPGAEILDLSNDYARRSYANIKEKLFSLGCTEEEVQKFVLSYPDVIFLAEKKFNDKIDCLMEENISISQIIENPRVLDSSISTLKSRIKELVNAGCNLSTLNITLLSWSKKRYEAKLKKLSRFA", "test": "cell_activity; HEK293 reporter; TAD effect", "conditions": "tags: TAD fusion"}},
  "note": "“Also recorded” adds a separate entry of the source.",
  "data": [
    {"molecule": "CO[C@H]1C[C@@H]2CC[C@@H](C)[C@@](O)(O2)C(=O)C(=O)N2CCCC[C@H]2C(=O)O[C@H]([C@H](C)C[C@@H]2CC[C@@H](O)[C@H](OC)C2)CC(=O)[C@H](C)/C=C(\\C)[C@@H](O)[C@@H](OC)C(=O)[C@H](C)C[C@H](C)/C=C/C=C/C=C/1C", "note": "[rapamycin]", "values": [
      {"measurement": "physiological blood concentrations", "setting": "[1]", "result": "~ 22 nM"}
    ]},
    {"molecule": "MTF: fusion of human MTERF1 amino acids 58-399 to RELA amino acids 430-551; prototype HumTAP synthetic transcription factor (protein) MFGVKCHNTDSEPLKNEDLLKNLLTMGVDIDMARKRQPGVFHRMITNEQDLKMFLLSKGASKEVIASIISRYPRAITRTPENLSKRWDLWRKIVTSDLEIVNILERSPESFFRSNNNLNLENNIKFLYSVGLTRKCLCRLLTNAPRTFSNSLDLNKQMVEFLQAAGLSLGHNDPADFVRKIIFKNPFILIQSTKRVKANIEFLRSTFNLNSEELLVLICGPGAEILDLSNDYARRSYANIKEKLFSLGCTEEEVQKFVLSYPDVIFLAEKKFNDKIDCLMEENISISQIIENPRVLDSSISTLKSRIKELVNAGCNLSTLNITLLSWSKKRYEAKLKKLSRFAQAGEGTLSEALLQLQFDDEDLGALLGNSTDPAVFTDLASVDNSEFQQLLNQGIPVAPHTTEPMLMEYPEAITRLVTGAQRPPDPAPAPLGAPGLPNGLLSGDEDFSSIADMDFSALLSQISS", "values": [
      {"measurement": "Gol fluorescence levels with or without concomitant WT MTERF1 expression", "setting": "[2]", "result": "no difference in Gol fluorescence levels"},
      {"measurement": "DE genes, Regulation Up (up-regulated gene, Symbol)", "setting": "[3]", "result": "Novel Transcript; also recorded: USP17L2; also recorded: HSPA7; also recorded: ADGRA1"}
    ]},
    {"molecule": "sense-5-8-10 promoter (dsDNA) DNA 1: TAAGATGGCAGAGCCCGGTAATAGAGTGCGTAAGATGGCAGAGCCCGGTAATAGAGTGCGTAAGATGGCAGAGCCCGGTAATAGAGTGCGTAAGATGGCAGAGCCCGGTAATAGAGTGCGTAAGATGGCAGAGCCCGGTAATGACTCATATGCTCTAGAGGGTATATAATGGGGGCC DNA 2: GGCCCCCATTATATACCCTCTAGAGCATATGAGTCATTACCGGGCTCTGCCATCTTACGCACTCTATTACCGGGCTCTGCCATCTTACGCACTCTATTACCGGGCTCTGCCATCTTACGCACTCTATTACCGGGCTCTGCCATCTTACGCACTCTATTACCGGGCTCTGCCATCTTA", "values": [
      {"measurement": "binding signal", "setting": "[4]", "result": 2, "unit": "fold vs sense-5-9-8"}
    ]},
    {"molecule": "5xRE, 0 bp spacing (dsDNA) DNA 1: TAAGATGGCAGAGCCCGGTAATTAAGATGGCAGAGCCCGGTAATTAAGATGGCAGAGCCCGGTAATTAAGATGGCAGAGCCCGGTAATTAAGATGGCAGAGCCCGGTAAT DNA 2: ATTACCGGGCTCTGCCATCTTAATTACCGGGCTCTGCCATCTTAATTACCGGGCTCTGCCATCTTAATTACCGGGCTCTGCCATCTTAATTACCGGGCTCTGCCATCTTA", "values": [
      {"measurement": "binding signal", "setting": "[5]", "result": 3.7, "unit": "fold vs MTF"},
      {"measurement": "binding signal", "setting": "[6]", "result": "~2", "unit": "fold vs MTF"},
      {"measurement": "binding signal", "setting": "[7]", "result": 201, "unit": "fold vs one TA1 copy"},
      {"measurement": "binding signal", "setting": "[8]", "result": 11.3, "unit": "fold lower than MTF"},
      {"measurement": "binding signal", "setting": "[9]", "result": 8.4, "unit": "fold lower than MTF"}
    ]},
    {"molecule": "WT MTERF1: human MTERF1, Uniprot Q99551, including the mitochondrial transfer peptide (protein, listed as Homo sapiens) MQSLSLGQTSISKGLNYLTIMAPGNLWHMRNNFLFGSRCWMTRFSAENIFKSVSFRLFGVKCHNTDSEPLKNEDLLKNLLTMGVDIDMARKRQPGVFHRMITNEQDLKMFLLSKGASKEVIASIISRYPRAITRTPENLSKRWDLWRKIVTSDLEIVNILERSPESFFRSNNNLNLENNIKFLYSVGLTRKCLCRLLTNAPRTFSNSLDLNKQMVEFLQAAGLSLGHNDPADFVRKIIFKNPFILIQSTKRVKANIEFLRSTFNLNSEELLVLICGPGAEILDLSNDYARRSYANIKEKLFSLGCTEEEVQKFVLSYPDVIFLAEKKFNDKIDCLMEENISISQIIENPRVLDSSISTLKSRIKELVNAGCNLSTLNITLLSWSKKRYEAKLKKLSRFA", "values": [
      {"measurement": "DE genes, Regulation Up (up-regulated gene, Symbol)", "setting": "[3]", "result": "GDF15; also recorded: TRPV6; also recorded: HSPA7"}
    ]}
  ]
}
